Data: patent US20170183667A1 (ANAEROPHARMA SCIENCE, published 2017)

T1: Recombinant Mouse PD-1 Fc Chimera (R&D Systems) (mouse, UniProt Q02242 25-167)
T1 construct: Bought reagent; also called mPD-1; Fc part of the bought chimera not given, not described
T1 sequence (looked up): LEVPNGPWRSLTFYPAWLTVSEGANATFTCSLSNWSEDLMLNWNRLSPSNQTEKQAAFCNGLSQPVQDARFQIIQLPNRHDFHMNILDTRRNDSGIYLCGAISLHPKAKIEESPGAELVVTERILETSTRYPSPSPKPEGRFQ

T2: Recombinant Human CTLA-4-Fc Chimera, carrier-free (BioLegend) (human, UniProt P16410 36-161)
T2 construct: Bought reagent; also called hCTLA-4; Fc part of the bought chimera not given, not described
T2 sequence (looked up): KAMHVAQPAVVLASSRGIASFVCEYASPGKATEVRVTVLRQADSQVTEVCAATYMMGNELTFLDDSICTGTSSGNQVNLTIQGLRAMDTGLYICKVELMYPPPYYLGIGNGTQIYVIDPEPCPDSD

B1: anti-PD-1-2 scFv antibody purified from Bifidobacterium longum 105-A/pHuSP7L20-scFv-PD-1-2 strain (scFv)
scFv: DSAQTSAVVSSRSFPKASSVMQVQLQESGPGLVKPSQSLSLTCTVTGHSITSDYAWNWIRQFPGDKLEWMGYISYSGYTTYNPSLKSRVSITRDTSKNQFFLQLNSVTTEDTATYFCARDLDYGPWFAYWGQGTTVTVSSGGGGSGGGGSGGGGSDIQMTQSPASLSASVGETVTLTCRASENIHNYLAWYQQKQGKSPQLLVYNVKTLADGVPSRFSGSGSGTQYSLKINSLQPEDFGSYYCQHFWSSPWTFGGGTKLEIKRHHHHHH
notes: also called anti-human PD-1 antibody
B2: anti-CTLA-4-1 scFv antibody purified from Bifidobacterium longum 105-A/pHuSP7L20-scFv-CTLA-4-1 strain (scFv)
scFv: DSAQTSAVVSSRSFPKASSVQVQLVESGGGVVQPGRSLRLSCAASGFTFSSYGMHWVRQAPGKGLEWVAVIWYDGSNKYYADSVKGRFTISRDNSKNTLYLQMNSLRAEDTAVYYCARDPRGATLYYYYYGMDVWGQGTTVTVSSGGGGSGGGGSGGGGSDIQMTQSPSSLSASVGDRVTITCRASQSINSYLDWYQQKPGKAPKLLIYAASSLQSGVPSRFSGSGSGTDFTLTISSLQPEDFATYYCQQYYSTPFTFGPGTKVEIKHHHHHH
B3: anti-PD-1-3 scFv antibody purified from Bifidobacterium longum 105-A/pHuSP7L20-scFv-PD-1-3 strain (scFv)
scFv: DSAQTSAVVSSRSFPKASSVMEVRLLESGGGLVKPEGSLKLSCVASGFTFSDYFMSWVRQAPGKGLEWVAHIYTKSYNYATYYSGSVKGRFTISRDDSRSMVYLQMNNLRTEDTATYYCTRDGSGYPSLDFWGQGTQVTVSSGGGGSGGGGSGGGGSYELTQPPSASVNVGETVKITCSGDQLPKYFADWFHQRSDQTILQVIYDDNKRPSGIPERISGSSSGTTATLTIRDVRAEDEGDYYCFSGYVDSDSKLYVFGSGTQLTVLGHHHHHH
notes: also called anti-mouse PD-1 scFv antibody; mPD-1 scFv

Columns and labels:
[1] = molecular target: T3, Recombinant Human PD-1 Fc Chimera (R&D Systems) (human, UniProt Q15116 25-167); test: ELISA, hPD-1 Fc chimera immobilised, scFv 1 ng/mL
T3 construct: Bought reagent; also called hPD-1; Fc part of the bought chimera not given, not described
Description: (§1) After the solution was removed, 350 μL of 1×PBS was dispensed and the solution was removed. This operation was repeated three times to carry out washing. In the above plates, 350 μL of a 1% BSA solution was dispensed and incubated at room temperature for 2 hours to carry out blocking. After removing the solution, 350 μL of 1×PBS was dispensed and the solution was removed. This operation was repeated three times to carry out washing.
(§2) Each solution (100 μL) was dispensed in the plates to which blocking treatment was already applied. […] To a blank well, a signal enhancing reagent (100 μL) alone was dispensed. After the plates were sealed and incubated at room temperature for 2 hours, immobilized hPD-1 was allowed to react with each of the scFv antibodies. After the solution was removed, 350 μL of 1×PBS was dispensed and the solution was removed. This operation was repeated three times to carry out washing.
(§3) This solution (200 μL) was dispensed in the plates. The plates were sealed and incubated at room temperature for 20 minutes. […] Absorbance at 450 nm was measured, whereas absorbance at 570 nm was measured as a control.

[2] = molecular target: T3, Recombinant Human PD-1 Fc Chimera (R&D …); test: ELISA, hPD-1 Fc chimera immobilised, scFv 10 ng/mL
Description: as §1, §2, §3

[3] = molecular target: T1, Recombinant Mouse PD-1 Fc Chimera (R&D …); test: ELISA, mPD-1 Fc chimera immobilised, scFv 10 ng/mL
Description: (§4) After the solution was removed, 350 μL of 1×PBS was dispensed and the solution was removed. This operation was repeated three times to carry out washing. In the above plates, 350 μL of a 1% BSA solution was dispensed and incubated at room temperature for 2 hours to perform blocking. After the solution was removed, 350 μL of 1×PBS was dispensed and the solution was removed. This operation was repeated three times to carry out washing.
(§5) The anti-PD-1-3 scFv antibody purified from a bacterium of the genus Bifidobacterium was diluted with a signal enhancing reagent (Signal Enhancer HIKARI, manufactured by Nacalai Tesque) to prepare solutions having a concentration of 1000 ng/mL, 100 ng/mL and 10 ng/mL. Each solution (100 μL) was dispensed in the plates to which blocking treatment was already applied. […] To blank wells, a signal enhancing reagent (100 μL) alone was dispensed. After the plates were sealed and incubated at room temperature for 2 hours, immobilized mPD-1 was allowed to react with the anti-PD-1-3 scFv antibody. After the solution was removed, 350 μL of 1×PBS was dispensed and the solution was removed. This operation was repeated three times to carry out washing.
(§6) Absorbance at 450 nm was measured, whereas absorbance at 570 nm was measured as a control.

[4] = molecular target: T3, Recombinant Human PD-1 Fc Chimera (R&D …); test: ELISA, hPD-1 Fc chimera immobilised, scFv 100 ng/mL
Description: as §1, §2, §3

[5] = molecular target: T1, Recombinant Mouse PD-1 Fc Chimera (R&D …); test: ELISA, mPD-1 Fc chimera immobilised, scFv 100 ng/mL
Description: as §4, §5, §6

[6] = molecular target: T3, Recombinant Human PD-1 Fc Chimera (R&D …); test: ELISA, hPD-1 Fc chimera immobilised, scFv 1000 ng/mL
Description: as §1, §2, §3

[7] = molecular target: T1, Recombinant Mouse PD-1 Fc Chimera (R&D …); test: ELISA, mPD-1 Fc chimera immobilised, scFv 1000 ng/mL
Description: as §4, §5, §6

[8] = molecular target: T2, Recombinant Human CTLA-4-Fc Chimera, …; test: ELISA, hCTLA-4-Fc chimera immobilised

T3 sequence (Q15116 25-167, change not shown): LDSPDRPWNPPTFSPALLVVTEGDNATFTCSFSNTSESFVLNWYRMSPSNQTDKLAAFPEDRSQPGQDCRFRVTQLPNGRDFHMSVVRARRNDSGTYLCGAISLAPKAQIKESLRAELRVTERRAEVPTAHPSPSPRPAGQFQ

| Binder | absorbance 450 nm (570 nm as control) [1] | absorbance 450 nm (570 nm as control) [2] | absorbance 450 nm (570 nm as control) [3] | absorbance 450 nm (570 nm as control) [4] | absorbance 450 nm (570 nm as control) [5] | absorbance 450 nm (570 nm as control) [6] | absorbance 450 nm (570 nm as control) [7] | binding result [8] |
| --- | --- | --- | --- | --- | --- | --- | --- | --- |
| B1 | 0.058 | 0.912 | 0.075 | 3.06 | -0.01 | 2.82 | 0.014 |  |
| B2 | -0.092 | -0.106 |  | -0.117 |  | -0.038 |  |  |
| B3 |  |  | 0.312 |  | 0.561 |  | 3.11 | no binding (tested: up to 1000 ng/mL) |
